According to patent publication US6323001A, “Increasing the trehalose content of organisms by transforming them with combinations of the structural genes for trehalose synthase” (BTG International Ltd., priority 1994, dated 2001):

Tested on: phosphoglucoisomerase (PGI) activity
Assay: PGI activity of TPS activator
Format: biochemical, S. cerevisiae
Conditions: 50 mM HEPES/KOH pH 7.0, 5 mM MgCl2, 5 mM F6P; stored several months at 0° C.
Experimental: The PGI activity of a sample of TPS activator that had been stored for several months at 0° C. was measured in 50 mM HEPES/KOH pH 7.0, 5 mM MgCl2, 5 mM F6P and 0.4 mg/ml NADP. A specific activity of 190 U/mg was found.

B1: TPS activator: TPS activator from S. cerevisiae, identical to yeast phosphoglucoisomerase (protein, UniProt P12709 2-554, looked up)
Glucose-6-phosphate isomerase: SNNSFTNFKLATELPAWSKLQKIYESQGKTLSVKQEFQKDAKRFEKLNKTFTNYDGSKILFDYSKNLVNDEIIAALIELAKEANVTGLRDAMFKGEHINSTEDRAVYHVALRNRANKPMYVDGVNVAPEVDSVLKHMKEFSEQVRSGEWKGYTGKKITDVVNIGIGGSDLGPVMVTEALKHYAGVLDVHFVSNIDGTHIAETLKVVDPETTLFLIASKTFTTAETITNANTAKNWFLSKTGNDPSHIAKHFAALSTNETEVAKFGIDTKNMFGFESWVGGRYSVWSAIGLSVALYIGYDNFEAFLKGAEAVDNHFTQTPLEDNIPLLGGLLSVWYNNFFGAQTHLVAPFDQYLHRFPAYLQQLSMESNGKSVTRGNVFTDYSTGSILFGEPATNAQHSFFQLVHQGTKLIPSDFILAAQSHNPIENKLHQKMLASNFFAQAEALMVGKDEEQVKAEGATGGLVPHKVFSGNRPTTSILAQKITPATLGALIAYYEHVTFTEGAIWNINSFDQWGVELGKVLAKVIGKELDNSSTISTHDASTNGLINQFKEWM
PGI specific activity: 190 U/mg
